# Source: the RNAGym collection of RNA variant scans (doi:10.1073/pnas.2313332121)
# B1: TPR t1 (parent)
# chain: GACCAAUCUGCCCUCAGAGCUCGAGAACAUCUUCGGAUGCAGAGGAGGCAGGCUUCGGUGGCGCGAUAGCGCCAACGUCCUCAACCUCCAAUGCAUCCCACCACAUGAUGAUGCCUGAAGAGCCUUGGUUUUUUG
# Variants of: B1
# Assay: polymerase ribozyme fitness, log enrichment relative to wild type (log ratio); higher = more active; in vitro selection for triplet polymerase activity
# Outline: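 Mutant libraries of each subunit of a heterodimeric triplet polymerase ribozyme were built by PCR and transcribed. Each library went through one round of in vitro selection in triplicate: annealing with biotinylated primer, partner subunit and triplets, frozen incubation at −7 °C, gel excision of extended constructs, streptavidin-bead capture and RT-PCR. Input and output libraries were Illumina-sequenced; only genotypes with ≥10 input reads and ≥1 read per output were kept. Fitness is log2(genotype enrichment/wild-type enrichment), using inverse-variance-weighted replicate averages.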
row,Variant,polymerase ribozyme fitness (log ratio)
1,GACCAAUCUGCCCUCAGAGCUCGAGAACAUCUUCGGAUGCAGAGGAGGCAGGCUUAGGUGGCGCGAUAGCGCCAACGUCAUCAACCUCCAAUGCAUCCCACCACAUGAUGAUGCCUGAAGAGCCUUGGUUUUUUG,-2.22
2,GACCAAGCUGCCCUCAGAGCUCGAGAACAUCUUCGCAUGCAGAGGAGGCAGGCUUCGGUGGCGCGAUAGCGCCAACGUCCUCAACCUCCAAUGCAUCCCACCACAUGAUGAUGCCUGAAGAGCCUUGGUUUUUUG,0.162
3,GACCAAUCUGGCCUCAGAGCUCGAGAACAUCUUCGGAUGCAGAGGAGGCAGGCUUCGGUGGCGCGAUAGCGGCAACGUCCUCAACCUCCAAUGCAUCCCACCACAUGAUGAUGCCUGAAGAGCCUUGGUUUUUUG,-0.147
4,GACCAAUCUGCACUCAGAGCUCGAGAACAUCUUCGGAUGAAGAGGAGGCAGGCUUCGGUGGCGCGAUAGGGCCAACGUCCUCAACCUCCAAUGCAUCCCACCACAUGAUGAUGCCUGAAGAGCCUUGGUUUUUUG,-4.57
5,GACCAAUCUGUCCUCAGUGCUCGAGAACAUCUUCGGAUGCAGAGGAGGCAGGUUUCGGUGGCGCGAUAGCGGCAACGUCCUGAACCUCCAAUGCAGCUCACCAUAUGACGAUGCCUGAAGAGCCUUGGUUUUUUG,-7.77
6,GCCCAAUCUGCCCUCAGAGCUCGAGAACAUCUUCGGAUGCAGAGGAGGCUGGCUUCGGAGGCGCGAUAGCGCCAACGUCCUCAACCUCCAAUGCAUCCCACCACAUGAUGCUGCCUGAAGCGCCUUGGUUUUAUC,-1.62
7,GACCAAUCUGCCCUCAGAGCUCGAGAACAUCUUCGGAUGCAGAGGAGGCAGGAUUCGGUGGCGCGAUACCGCCAACUUCCUCAACCUCCAAUGCAACCCACCACAUGAUGAUGCCUAAAGAGCCUUGGUUUUUUG,-5.87
8,GACCAAUCUGCCCUCAGAGCUCGAGAACAUCUUCGGAUGCAGAGGUGGCAGGCUUCGGUGGCCCGAUAGCGCCAACGUCCUCAACCUCCAAUGCAUCCCACCACAUGAUGAUGCCUGAAGAGCCUUGGUUUUUUG,-1.29
9,GACCAAUCCGCCUUCAGAGCUCGAGAUCAUCUUCGGAUGCAGAGGCGGCAGACUUCGGUGGCGCGAUAGCGCCAACGUCCUCAACCUCCAAUGCAUCCCACCACAUGAUGAUACCUGAAGAGCCUUGGUUUUUUG,-6.07
10,GACCAAUCUGCCCUCAGAGCUCGAGAACAUCUUCGGAUGCAGAGGAGGCAGGCUUCGGUGGCGCGAUAGCGCCCAAGUCCUCAACCUCCAAUGCAUCCCACCACAUGAUGAUGCCUGAAGCGCCUUGGUUUUUUG,-1.23
11,GACCAAUCUGCCCUCAGAGCUCGAGAACAUCUUCGGAUGCAGAGUAGGCAAUCUUCGGUGGCGCGAUAGCGCCAACGUCCUCAACCUCCAAUGCAUCCCACCACAUGAUGAUGCCUGAAGAGCCUUGGUUUUUUG,-4.66
12,GACCAAUCUGCCCUCAGAGCUCGAGAACAUCUUCGGAUGCAGAGGAGGCAGGCUUCGGUGGCGCGAUAGCGCCAACGUCCUCAACCUCCAUUGCAUCCCACCACAUGAUGAUGCGUGAAGAGCCUUGGUUUUUUG,-2.97
13,GACCAAUCUACCCUCAGCGCUCGAGAACAUCUUCGGAUGCAGAGGAGGCAGGCUUCGGUGGCGCGAUAGCGCCAACGUCCUCAACCUCCAAUGCAUCCCACCACAUGAUGAUGCCUGAAGAAGCUUGGUUUUUUG,-0.417
14,GACCAAUCUGCCCUCAGAGCUGGAGAACAUCUUCGCAUGCAUAGGAGGCAGGCUUCGGUGGCGCGAUAGCGCCAACGUCCUCAACCUCCAUUGCAUCCCACCACAUGAUGAAGCCUGAAGAGCCUUGGGUUUUUG,-4.65
15,GACCAAUCUGCCCUCAGAGAUCGAGAACAUCUUCGGAUGCAGAGGAGGCAGGCUUCGGUGGCGCGAUAGCGCCUACGUCCUCAACCUCCAAUGCAUCCCACCACAUGAUGAUGCCUGAAGAGCCUUGGUUUUUUG,-3.01
16,GACCAAUCUGCCCUCAGAGCUCGAGAACAUCUUCGGAUGCAGAGGAGGCAGGCUUCGGUGGCGCGAUAGCCCCAACGACCUCAACCUCCAAUGCAUCCCACCACAUGAUGAUGCCUGAAGAGCCUUGGUUUUUUG,-0.14
17,GACCAAUCUGCCCUCAGAGCUCGAGAACAUCUUCGGAUGCAGAGGAGGCAGGCUUCGGUGGCGCGAUAGCGCCAACGUCCUCAACCUCCAAUGCAUCCCACCACAUGAUGAUGCCUGAAGAGCAUUGGUUAUUUG,1.79
18,GACCAAUCUGCCCUCAGAGCUCGAGAACAUCUUCGGAUGCAGAGGAGGCAGGCUUGGGUGGCGCGAUAGCGCCAACGUCCUCAACCCCCAAUGCAUCCCACCACAUGAUGAUGCCUGAAGAGCCUUGGUUUUUUG,-0.336
19,GACCAAUCUGUCCUCAGAGCUCGAGAACAUCUUCGGAUGCAGCGGAGGCAGGCUUCGGUGGCGCGAUACCGCCAACUUCCUCAACCUCCAAUGCAUCCCACCACAUGAUGAGGCCUGAAGAGCCUUGGUUUUUGG,-5.15
20,GACCAAUCUGUCCUCAGAGCUCGAGAACAUCUUCGGAUGCAGAGGAGGCAGGGUUCGGUGGCGCGAUAGCGCCAACGUCCUCAACCUCCAUUGCAUCCCACCACAUGAUGAUGCCUGAAGAGCCUUGGUUUUUUG,-1.86
21,GACCAAUCUGGCCUCAGAGCUCGAGAACAUAUUCGGAUGCAGAGGAGGCAGGCUUCGGUGGCGCGAUAGCGCCAACGUCCUCAACCUCCAAUGCAUCCCACCACAUGAUGAUGCCUGAAGAGCCUUGGUUUUUUG,-4.96

row,Variant,polymerase ribozyme fitness (log ratio)
1,GACCAAUCUGCCCUCAGAGCUCGAGAACAUCUUCGGAUGCAGAGGAGGCAGGCUUCGGUGGCGCGAUAGCGCCAACGUCCUCUACCUCCAAUGCAUCCCACCACAUGAUGAUGCUUGAAGAGGCUUGGUUUUUUU,-1.98
2,GACCAAUCUGCCCUCAGAGCUCGAGAACAUCUUCGGAUGCAGAGGAGGCAGGGUUCGGUUGCGCGAUAGCGCCAACGUCCUCAACCUCCAAUGCAUCCCACCAAAUGAUGAUGUCUGAAGAGCCUUGGUUUUUUG,-5.11
3,GACCAAUCUGCCCUGAGAGCUCGAGAACAUCUUCGGAUGCAGAGGAGGCAGGCUUCGGUGGCUCGAUAGCGCCAACGUCCUCAACCUCCAAUGCAUCCCACCACAUGAUGAUGCCUGAAGAGCCUUGGUUUUUUG,-3.98
4,GACCAAUCUGCCCUCAGAGCUCGAGAACAUCUUCGGAUGCAGAGGAAGCAGGUUUCGGUGGCGCGAUAGCGCCAACGUCCUCAACCUCCAAUGCAUCCCACCACAUGAUGAUGCCUGAAGAGCCUUGGUUUUUUG,-1.23
5,GACCAAUCUGCCCUCAGAGCUCGAGAACAUCUUCGGAUGCAGAGGAGGCAUGCUUCGGUGGCGCGAUAGCGCCAACGUCCUCAACCUCCAAUGCAUCCCACCACAUGAUGAUGCCCGAAGAGCCUUGGUUUUUUG,-4.25
6,GACCAAUCUGCCCUCAGCGCUCGAGAACAUCUUCGGAUGCAAAUGAGGCAGGGUUCGGUGGCGCGAUAGCGCCAACGUCCUCAACCUCCAAUACAUCCCACCACAUGAUGAUGCCUGAAGAGCCUUGGUUUUUUG,-4.64
7,GACCAAUCUGCCCUCAGAGCUCGAGAACAUCUUCGGAUGCAGAGGAGGCAGGCUUCGGUGGCGCGAUAGCGCCAACGUCCUCAACCUCCAAUGCAUCCCACCAAAUGAUGAUGCAUGAAGAGCCUUGGUUUUUUG,-0.858
8,GACCAAUCUGCCCUUAGAGCUCGAGAACAUCUUCGGAUGCAGAGGAGGCAGGCUUCGGUGGCGCGAUAGCGACAACGUCCUUAACCUCCAAUGCAUCCCACCACAUGAUGAUGCCUGAAGAGCCUUGGUUUUUUG,-1.42
9,GACCAAUCUGCCCUCAGAGCUCGAGAACAUCUUCGGAUGCAGAGGAGGCAGGCUUCGGUGGCGCGAUAGUGCCAACGUCCUCAACCUCCAAUGCAUCCCACCACAUGAUGGUGCCUGAAGAGCCUUGGUUUUUUG,0.0643
10,GACCAAUGUGCCCUCAGAGCUCGAGAACAUCUUCGGAUGCAGAGGAGACAGGCUUCGGUGGCCCGAUAGCGUCAACGUCCUCAACCUACAAUGCAUCCCACCACAUGAUGAUGCCUGAAGAGCCUUGGUUUUUUG,-4.05
11,GACCAAUCUGCCCUCAGAGCUCGAGAACGUCUUCGGAUGCAGAGGAGGCAGGGUUCGGUGGCGCGAUAGCGCCAACGUCCUCAACCUCCAAUGCGUCCCACCACAUGAUGAUGCCUGAAGAGCCUUGGUUUUUUG,-2.04
12,GACGAAUCUGCCCUCAGAGCUCGAGAACAUCUUCGGAUGCAGAGGAGGCAGGCUUAGGGGGCGCGAUAGCGCCAACGUCCUCAACCUCCAAUGCAUCCCACCAUAUGAUGUUGCCUGAAGAGUCUUGGUUUUUUG,-4.15
13,GACCAAUCUGUCCUCAGAGCUCGAGAACAUCUUCGGAUGCAGAGGAGGCAGGCUUCGAUGGCGCGAUAGCUCCAACGUCCUCAACCUCCGAUGCAUCCCACCACAUGAUGAUGCCCGAAGAGCCUUGGUUUUUUG,-2.7
14,GACCAAUCUGCCCUCAGAGCUCGAGAACAUCUUCGGAUGCUGAGGAGGCAGGCUUCUGUGGCGCGAUAGCGCCAACGUCCUCAACGUCCAAUGCAUCCCACCACAUGAUGAUGCCUGAAGAGUCUUGGUUUUUUG,-4.13
15,GACCAAUCUGCCCUCAGAGCUCGAGAACAUCUUCGGAUGCAGCGGAGGCAGGCUUCGGUGCCGCGAUAGCGCCAACGUCCUCAACCUCCAAUGCAUCCCACCACAUGAUGAUGCCUGAAGAGCCUUGGUUUUUUG,-5.34
16,GACCAAUCUGCCCUCAGAGCUCGAGAACAUCUUCGAAUGCAGAGGAGGGAGGCUUCGGUGGCGCGAUAGCGCCAACGUCCUCAACCUCCAAUACGUCCCACCACAUGAUGAUGCCUGAAGAGCCUUGGUUUUUUG,-3.09
17,GACCAAUCUGCCCUCAGAGAUCGAGAACAUCUUCGGAUGCAGAGGAGGCAGGUUUCGGUGGCGCGAUAGCGCCAACGUCCUCAACCACCAAUGCAUCCCACCACAUGAUGAUGCCUGAAGAGCCUUGGUUUUUUG,-3.21
18,GACCAAUGUGCCCUCAGAGCUCGAGAACAUCUUCGGAUGCAGAGGAGGCAGGCUUCGGUGGCGCGAUAGCGCCAACGUCCUCAACCUCCCUUGCGUCCCACCACAUGAUGAUGCCUGAAGAGCCUUGGUUUUUUG,-1.14
19,GACCAAUCUACCCUCAGAGCUCGAGAACAUCUUCGGAUUCAAAGGAGGCAGGCUUCGGUGGCGCGAUAGCGCCAACGUCCUCAACCUCCAAUGCAUCCCACCACAUGAUGAUGCCUGAAGAGCAUUGGUUUUUUG,-0.542
20,GACCAAUCUGCCCUAAGAGCUAGAGAACAUCUUCGGAUGCAGAGGAGGCAGGCUUCGGUGGCGCGAUAGCGCCAACGUCCUCAACCUCCAAUGCAACCCACCACAUGAUGAUGCCUGAAGAGCUUUGGUUUUUUG,-5.05
21,GACCAAUAUGCCCUCAGAGCUCGAGAACAUCUUCGGAUGCAGAGGAGGCAGGCUUCGGUGGCGCGAUAGCGUCAACGUCCUCAACCUCCAAUGCAUCCCACCACAUGAUGAUGCCUGAAGAGCCUUGGUUUUUUG,0.071
